Laboratory results reported in patent publication US12129294B2, “Methods of treatment of diseases in which IL-13 activity is detrimental using anti-IL-13 antibodies” (AbbVie Inc., priority 2016, dated 2024).
Where “and” joins values, the source holds several entries; their conditions need not be identical. Equal values may be shown once. Entries after “also recorded” stand apart in the source; their conditions may differ.

Key:
[1] = system: subjects with symptomatic eosinophilic esophagitis (EoE); experiment: Phase 2 study in EoE patients: dysphagia symptom composite diary score (daily symptom diary, DSD); assay type: in vivo, human; conditions: subgroup analysis; over 16 weeks
Excerpt: Safety was monitored throughout the study. […] The study was powered for the primary endpoint. […]

[2] = system: subjects with symptomatic eosinophilic esophagitis (EoE); experiment: Phase 2 study in EoE patients: safety, treatment-emergent adverse events (TEAE)
Description: A double-blind, placebo-controlled, dose-finding study was conducted at 40 canters in North America and Switzerland. Patients with EoE (n=100, aged 18-65) were randomized to 180 mg (low dose; LD) or 360 mg (high dose; HD) RPC4046 or PBO (1:1:1) in a Day 1 intravenous loading dose, followed by weekly subcutaneous doses for 15 weeks. […] Safety was monitored throughout the study.
Additionally, various safety and tolerability endpoints are also measurable. Safety and tolerability parameters are evaluated by the incidence, severity, and relationship of adverse events (AEs), serious AEs (SAEs), clinical laboratory abnormalities, changes in vital signs, physical examination abnormalities, and the presence of anti-drug antibodies.

[3] = system: subjects with symptomatic eosinophilic esophagitis (EoE); experiment: Phase 2 study in EoE patients: clinician's global assessment of disease severity; assay type: in vivo, human; conditions: for clinician's global assessment of disease severity, Mean change / clinician's global assessment of disease severity, LSMD versus placebo: Change to Week 16; for clinician's global assessment of disease severity, LSMD versus placebo: ANCOVA
Excerpt: (§1) Safety was monitored throughout the study. […] The study was powered for the primary endpoint.

[4] = system: subjects with symptomatic eosinophilic esophagitis (EoE); experiment: Phase 2 study in EoE patients: subject's global impression; assay type: in vivo, human; conditions: therapy arm; week 16
Excerpt: as §1

human type IL-13 = human type IL-13 (Homo sapiens, UniProt P35225, Q144R); experiment: Binding of the antibody to IL-13
Chain of human type IL-13 (P35225 15-146 Q144R limits assumed): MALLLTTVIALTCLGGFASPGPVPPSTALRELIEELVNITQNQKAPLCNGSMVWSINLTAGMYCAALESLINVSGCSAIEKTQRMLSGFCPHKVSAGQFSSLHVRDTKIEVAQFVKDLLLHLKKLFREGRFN

[5] = system: subjects with symptomatic eosinophilic esophagitis (EoE); experiment: Phase 2 study in EoE patients: mean esophageal eosinophil count in the 5 most inflamed HPF of esophageal biopsies; assay type: in vivo, human; conditions: for mean esophageal eosinophil count (EEOC Mean BL): baseline; for mean change from baseline in mean esophageal eosinophil count: baseline to week 16; for mean esophageal eosinophil count (EEOC Mean post): post treatment (week 16)
Excerpt: as §1
Additionally, various safety and tolerability endpoints are also measurable.
To maximize consistency, biopsies were obtained from proximal and distal esophagus (i.e., 4 biopsy fragments from each level) at screening. Additional biopsies from mid-esophagus was encouraged and effort was made to obtain subsequent biopsies from the same levels. The biopsies were blinded and read by single central pathologist. To be eligible for trial, subjects were evaluated for peak eosinophil count of ≥15/HPF, from 2 of 3 (proximal, mid-, and/or distal) levels of the esophagus at the screening endoscopy.

[6] = 180 mg (N = 31), safety population
[7] = 360 mg (N = 34), safety population

B1: RPC4046: recombinant humanized, high-affinity, selective anti-IL-13 monoclonal antibody; heavy chain variable region SEQ ID NO: 2, light chain variable region SEQ ID NO: 3 (antibody, V domains shown)
VH: EVTLRESGPGLVKPTQTLTLTCTLYGFSLSTSDMGVDWIRQPPGKGLEWLAHIWWDDVKRYNPALKSRLTISKDTSKNQVVLKLTSVDPVDTATYYCARTVSSGYIYYAMDYWGQGTLVTVSS
VL: DIQMTQSPSSLSASVGDRVTISCRASQDIRNYLNWYQQKPGKAPKLLIFYTSKLHSGVPSRFSGSGSGTDYTLTISSLQPEDIATYYCQQGNTLPLTFGGGTKVEIK
[1]
  benefit on dysphagia composite diary score, steroid refractory versus non-steroid-refractory subgroup: steroid refractory sub-group benefited more
[2]; [6]
  Number of subjects experiencing Death related to study drug: 0 n
  Number of subjects experiencing ≥1 TEAE: 20 n
  Number of subjects experiencing ≥1 TEAE leading to study drug d/c: 1 n
  Number of subjects experiencing ≥1 TEAE with fatal outcome: 0 n
  Number of subjects experiencing ≥1 moderate or severe TEAE: 7 n
  Number of subjects experiencing ≥1 possible, probable, or related TEAE: 11 n
  Number of subjects experiencing ≥1 related TEAE: 3 n
  Number of subjects experiencing ≥1 related serious TEAE: 0 n
  Number of subjects experiencing ≥1 serious TEAE: 0 n
  Number of subjects experiencing ≥1 severe TEAE: 2 n
  Subjects experiencing ≥1 TEAE: (64.5) %
  Subjects experiencing ≥1 TEAE leading to study drug d/c: (3.2) %
  Subjects experiencing ≥1 moderate or severe TEAE: (22.6) %
  Subjects experiencing ≥1 possible, probable, or related TEAE: (35.5) %
  Subjects experiencing ≥1 related TEAE: (9.7) %
  Subjects experiencing ≥1 severe TEAE: (6.5) %
[2]; 180 mg and 360 mg, 16-week treatment
  safety and tolerability: well-tolerated with a favorable safety profile; also recorded: generally safe and well-tolerated
[2]; [7]
  Number of subjects experiencing Death related to study drug: 0 n
  Number of subjects experiencing ≥1 TEAE: 29 n
  Number of subjects experiencing ≥1 TEAE leading to study drug d/c: 3 n
  Number of subjects experiencing ≥1 TEAE with fatal outcome: 0 n
  Number of subjects experiencing ≥1 moderate or severe TEAE: 11 n
  Number of subjects experiencing ≥1 possible, probable, or related TEAE: 18 n
  Number of subjects experiencing ≥1 related TEAE: 5 n
  Number of subjects experiencing ≥1 related serious TEAE: 0 n
  Number of subjects experiencing ≥1 serious TEAE: 1 n
  Number of subjects experiencing ≥1 severe TEAE: 2 n
  Subjects experiencing ≥1 TEAE: (85.3) %
  Subjects experiencing ≥1 TEAE leading to study drug d/c: (8.8) %
  Subjects experiencing ≥1 moderate or severe TEAE: (32.4) %
  Subjects experiencing ≥1 possible, probable, or related TEAE: (52.9) %
  Subjects experiencing ≥1 related TEAE: (14.7) %
  Subjects experiencing ≥1 serious TEAE: (2.9) %
  Subjects experiencing ≥1 severe TEAE: (5.9) %
[2]; phase 2 study
  most-frequently reported adverse events: headache, URI, arthralgia, nasopharyngitis, sinusitis, abdominal pain and oropharyngeal pain
[2]; treatment groups
  infusional hypersensitivity events: no reported instances of infusional hypersensitivity events
[3]; 180 mg, Baseline
  clinician's global assessment of disease severity, Mean: 6.7
  clinician's global assessment of disease severity, Median: 7.0
[3]; 180 mg
  clinician's global assessment of disease severity, Mean change: −3.6
  clinician's global assessment of disease severity, LSMD versus placebo: −1.7
[3]; 180 mg, Week 16
  clinician's global assessment of disease severity, Mean: 2.9
  clinician's global assessment of disease severity, Median: 2.0
[3]; 360 mg, Baseline
  clinician's global assessment of disease severity, Mean: 6.1
  clinician's global assessment of disease severity, Median: 6.0
[3]; 360 mg
  clinician's global assessment of disease severity, Mean change: −2.9
  clinician's global assessment of disease severity, LSMD versus placebo: −1.3
[3]; 360 mg, Week 16
  clinician's global assessment of disease severity, Mean: 3.2
  clinician's global assessment of disease severity, Median: 3.0
[3]; both the low and the high dose, week 16
  clinician's global assessment of disease severity at week 16: achieved statistical significance
[4]
  subjects responding as feeling a lot better or a little better compared to placebo: larger number of subjects
Human type IL-13
  binding to human type IL-13: binds to human type IL-13
  selectivity for IL-13: highly selective for IL-13
[5]; 180 mg (LD)
  mean esophageal eosinophil count (EEOC Mean BL): 116.6 cells/hpf and 116.7 cells/hpf
  mean change from baseline in mean esophageal eosinophil count: −94.8 cells/hpf
[5]; 180 mg
  mean esophageal eosinophil count (EEOC Mean post): 24.8 cells/hpf
[5]; 360 mg (HD)
  mean esophageal eosinophil count (EEOC Mean BL): 122.6 cells/hpf
  mean change from baseline in mean esophageal eosinophil count: −99.9 cells/hpf
[5]; 360 mg
  mean esophageal eosinophil count (EEOC Mean post): 25.5 cells/hpf
[5]; both low dose (180 mg) and high dose (360 mg)
  mean esophageal eosinophil count at week 16 compared to the controls: statistically significant reduction
